# Assay results: US20130302348A1 (MIT, published 2013)
# B1: exemplary antibody (VH-1 combined with VL-1; Table 4) (antibody, V domains shown)
# VH: EVQLLESGGGLVKPGQSLKLSCAASGFTFTSYGMHWVRQPPGKGLEWVAVISYDGSYKYYADSVQGRFTISRDNSKNTLYLQMNSLRAEDTAVYYCAKDSELRSLLYFEWLSQGYFNPWGAGTTLTVSS
# VL: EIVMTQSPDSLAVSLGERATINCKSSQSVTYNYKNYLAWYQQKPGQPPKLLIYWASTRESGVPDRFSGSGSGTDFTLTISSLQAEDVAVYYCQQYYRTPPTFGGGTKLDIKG
# notes: also called exemplary influenza antibody
# Target: biotinylated H5 (A/Vietnam/1203/2004) HA polypeptide (influenza virus A/Vietnam/1203/2004, UniProt Q8QPL1 17-531)
binder,measurement,value
B1,Kd,0.03 nM
same,koff,7.38e-06 s⁻¹
same,kon,247000 M⁻¹ s⁻¹
